Data: doi:10.1101/749432

Target: endothelial protein C receptor (EPCR), residues 16 to 210, biotinylated on the BAP tag (human) (UniProt Q9UNN8)
Assay: SPR

endothelial protein C receptor (EPCR), residues 16 to 210, biotinylated on the BAP tag (human), sequence (Q9UNN8 16-210): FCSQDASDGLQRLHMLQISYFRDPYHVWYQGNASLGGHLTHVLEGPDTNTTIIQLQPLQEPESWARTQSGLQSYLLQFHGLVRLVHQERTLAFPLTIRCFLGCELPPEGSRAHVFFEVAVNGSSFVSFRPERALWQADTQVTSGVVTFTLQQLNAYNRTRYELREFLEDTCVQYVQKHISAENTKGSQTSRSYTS

“HB3var03 CIDRα1.4 domain D576A K642A double mutant (domain or fragment)” was tested. Which Kd did it give?
The Kd was 220 nM.
